Assay results as given in patent US9023998B2, “Near infrared fluorogen and fluorescent activating proteins for in vivo imaging and live-cell biosensing” (Carnegie Mellon University, priority 2013, dated 2015).

How the values were obtained:
dL9 (SEQ. ID NO: 1) = experiment: Fluorescence activation of SKC638 by purified dL9; type: biochemical; conditions: molar excess of purified dL9, excitation 630 nm, non-normalized spectrum
Description: The non-normalized emission spectrum shown (black, solid) was acquired using a Quantamaster fluorometer (PTI) by excitation through monochromators set at 630 nm. The primary peak near 730 nm is likely due to contaminating SKC602, while a second, smaller peak is clearly observed near 823 nm, and is likely contributed by the extended chromophore of SKC638.

[1] = Relative fluorescence quantum yield of fluoromodules, gradient method; type: physicochemical; conditions: relative to Cy5.18 in PBS pH 7.4 and oxazine-1 in ethanol; molar excess of FAP; room temperature
Description: (§1) Relative fluorescence quantum yield assessments were conducted via the gradient method (Williams, Winfield and Miller, Relative Fluorescent Quantum Yield Using a Computer-controlled Luminescence Spectrometer, Analyst, vol. 108, 1067-1071 ([…]) against reference dyes Cy5.18 in PBS, pH 7.4 (Mujumdar, et al., Cyanine Dyes Labeling Reagents: Sulfoindocyanine Succinimidyl Esters, Bioconjugate Chemistry, Vol. 4, No. 2, 105-111 (1993) and oxazine-1 in absolute ethanol (Worth, et al., Integrating Sphere Setup for the Traceable Measurement of Absolute Photoluminescence Quantum Yields in the Near Infrared, Analytical Chemistry, 84, 1345-1352 (2012). Fluoromodules were formed by combining a quantity of fluorogen (SKC602 or SKC728) at least 20-fold above the fluoromodule dissociation constant with a molar excess of purified FAP (dL9.2 (SEQ. ID. NO. 2) or dL9.5 (SEQ. ID. NO. 3)). The solutions were incubated at 4° C. with rocking for at least one hour prior to measurements in order to ensure complete complex formation. The optical path length for all sample measurements was 1.00 cm, and all solutions were at room temperature during measurement. Absorbance measurements were taken using a PerkinElmer Lambda 45 UV/VIS spectrometer, while fluorescence emission spectra were measured using a Quantamaster fluorometer equipped with dual excitation and emission monochromators (Photon Technology International). Fluorescence emission was integrated using Spekwin32 (Menges 2013, http://www.effemm2.de/spekwin/spekwin_copyright/de.html. Linear fits and quantum yield ratios were calculated in Microsoft Excel 2013.

[2] = Spectral properties of fluoromodules (Table 1); type: physicochemical; conditions: fluoromodule (FAP:fluorogen complex)
Description: The spectral properties of fluoromodules assembled from combinations of dL9.2 (SEQ. ID. NO. 2) and dL9.5 (SEQ. ID. NO. 3) with SKC602 and SKC728 are listed in Table 1. dL9.2 (SEQ. ID. NO. 2) is an asymmetric light chain (VL-VL) tandem dimer based upon dL9 (SEQ. ID. NO. 1), hosting the V70A mutation on the N-terminal light chain. dL9.5 (SEQ. ID. NO. 3) is a symmetric light chain (VL-VL) tandem dimer based upon dL9.2 (SEQ. ID. NO. 2) with the V70A mutation propagated to C-terminal chain, and an additional Y96H mutation that is present on both chains. These genetically encoded fluorescent labels yield good brightness in the far-red/NIR spectral regime when combined with their cognate fluorogens.
The dL9.2:SKC602 (SEQ. ID. NO. 2:SKC602) fluoromodule (black, solid) emits at longer wavelengths than existing biliverdin-binding infra-red fluorescent proteins, while retaining the ability to be excited effectively by common illumination sources such as the HeNe laser line (633 nm) as well as lamps equipped with Cy5™-compatible excitation filters. Spectra of dL9.5 (SEQ. ID. NO. 3) bound to SKC602 are highly similar. Excitation and emission spectra are normalized to the highest value within each data set.
as §1

[3] = system: HEK293 cells expressing dL9.5; experiment: Confocal imaging of HEK293 cells expressing dL9.5 in various cellular contexts; type: cell-based; conditions: cytoplasmic dL9.5-eGFP, 200 nM SKC602, fluorogen not washed away
Description: The expressed construct was imaged using an Andor Revolution XD spinning disk confocal (GFP 488:525/50, dL9.5 (SEQ. ID. NO. 3) 640:685/70 AND 640:794/160, 60×1.49 NA oil immersion objective) and the results are shown in FIG. 5. […] The fluorogen was not washed away prior to imaging.
Imaging conditions were similar to those described for obtaining FIG. 5.
CYTOPLASM. HEK293 cells were transfected with, and stably expressing the pCYdL9.5eGFP vector, were thawed from a cryostock and maintained in DMEM/10% FBS for four passages prior to fluorescence imaging procedures. Immediately prior to imaging, growth media was exchanged for HBSS (pH 7.4) supplemented with SKC602 (200 nM final concentration). The cells were allowed to recover at 37° C. with 5% CO2 for 20-30 minutes, and fluoromodule activity under in vivo conditions within the cytoplasm was imaged using an Andor Revolution XD spinning disk confocal microscope (60×1.49 NA oil immersion objective, excitation at 640 nm, emission in far-red: 685/70 filter, and NIR: 794/160 filter). The same cells were also imaged for eGFP activity (excitation at 488 nm, emission via 525/50 nm filter). […] In accordance with the fluoromodule emission spectrum shown in FIG. 2, this emission filter allows the microscope camera to detect a large portion of the fluoromodule emission, and consequently, the observed signal appears brighter. One must note that intensities cannot be directly compared between channels, due to considerations non-exclusively including: differences in excitation light intensities, exposure and capture times, the transmission profile of each emission filter, and the quantum efficiency of the iXON3 DU897 (back-illuminated) camera across the range of emitted wavelengths. An evenly distributed fluorescence signal is observed in these cells, with no bright foci that would indicate protein aggregation, and the fluoromodule signal intensity scales with that of eGFP.
PLASMA MEMBRANE. […]

[4] = Fluoromodule activity/stability with respect to pH; type: physicochemical; conditions: for Longer-term stability of fluorescence across pH: 24 hours
Description: […] 4. The averages of five replicates per pH increment are shown as filled circles; bars denote extreme values within each replicate set, and normalization is to the maximum value within all data points. […] Stability of this degree allows the fluoromodule probe to be useful in an extremely wide range of cellular contexts.
A set of titrating buffers occupying pH values from 2.0 to 10.0 in 0.5 unit increments was prepared at room temperature in accordance to a published recipe (Carmody, An Easily Prepared Wide Range Buffer Series, Journal of Chemical Education, Vol. 38, No. 11, pp. 559-560 (1961)) adjusted to accommodate sodium chloride at a concentration of 300 mM. Fluoromodules consisting of dL9.5 bound to SKC602 were prepared by addition of 16.7 μL HPLC-purified SKC602 (300 μM stock in EtOH/5% acetic acid) to 1.30 mL Buffer (10.0 mM Tris, pH 8.0 at RT, supplemented with 300 mM NaCl). Purified dL9.5 was added (1.5 mL, approximately 50 μM stock) and incubated at 4° C. for 90 minutes. […] Fluorescence was then measured using a TECAN Infinite M1000 plate reader with 695/10 nm excitation and 735/10 nm emission windows at a gain of 111. Data was processed in Microsoft Excel 2010: The mean fluorescence intensity value for each pH increment was calculated, and all mean values were divided by the maximum mean intensity in order to normalize fluorescence intensities measured across the entire pH range to a value of 1.0. Extreme values within each set of five replicates calculated to a percentage of the mean for each pH increment in order to indicate the degree of variation across replicate reads.

Molecule	Emission peak contributed by extended chromophore (dL9 (SEQ. ID NO: 1)) [nm]	Φ (fluorescence quantum yield) [1]	Brightness (ε · Φ · 1 × 10^−3) [2]	Em (nm), emission maximum [2] [nm]	Ex (nm), excitation maximum [2] [nm]	ε [2] [M⁻¹ cm⁻¹]	NIR fluorescence in cytoplasm of HEK293 cells [3]	Fluorescence stability across pH range ([4]; Carmody buffer with 300 mM NaCl, pH 2-10, after three hours)	Change of mean fluorescence in each pH solution over one hour ([4]; pH 2.0-10.0, reads every minute for one hour) [%]	Longer-term stability of fluorescence across pH [4]
CN(C)c1ccc(/C=C/C=C/C(=C2C=CC(=[N+](C)C)C=C2)c2ccc(N(C)C)cc2)cc1 [SKC638]	~823									
dL9.5:SKC602: fluoromodule: FAP dL9.5 (SEQ. ID. NO. 3) non-covalently complexed with fluorogen SKC602 (protein, non-covalent fluorogen SKC602; Fluorogen Activating Peptide (FAP) sequence) SYELTQPPSVSVSPGQTARITCSGDALPKQYTYWYQQKAGQAPVLVIYKDTERPSGIPERFSGTSSGTTATLTISGVQAEDEADYYCQSADSSGSHVFFGGGTKVTVLSGGGGPGGGSGGGSGGGSGGGSYELTQPPSVSVSPGQTARITCSGDALPKQYTYWYQQKAGQAPVLVIYKDTERPSGIPERFSGTSSGTTATLTISGVQAEDEADYYCQSADSSGSHVFFGGGTKVTVLS		0.17	20	731	702	120000	produces NIR fluorescence	exceptional stability across a broad pH range	≤ 3	
dL9.5:SKC728: fluoromodule: FAP dL9.5 (SEQ. ID. NO. 3) non-covalently complexed with fluorogen SKC728 (protein, non-covalent fluorogen SKC728; Fluorogen Activating Peptide (FAP) sequence) SYELTQPPSVSVSPGQTARITCSGDALPKQYTYWYQQKAGQAPVLVIYKDTERPSGIPERFSGTSSGTTATLTISGVQAEDEADYYCQSADSSGSHVFFGGGTKVTVLSGGGGPGGGSGGGSGGGSGGGSYELTQPPSVSVSPGQTARITCSGDALPKQYTYWYQQKAGQAPVLVIYKDTERPSGIPERFSGTSSGTTATLTISGVQAEDEADYYCQSADSSGSHVFFGGGTKVTVLS		0.23	23	733	703	98000				
dL9.2:SKC728: fluoromodule: FAP dL9.2 (SEQ. ID. NO. 2) non-covalently complexed with fluorogen SKC728 (protein, non-covalent fluorogen SKC728; Fluorogen Activating Peptide (FAP) sequence) SYELTQPPSVSVSPGQTARITCSGDALPKQYTYWYQQKAGQAPVLVIYKDTERPSGIPERFSGTSSGTTATLTISGVQAEDEADYYCQSADSSGSYVFFGGGTKVTVLSGGGGPGGGSGGGSGGGSGGGSYELTQPPSVSVSPGQTARITCSGDALPKQYTYWYQQKAGQAPVLVIYKDTERPSGIPERFSGTSSGTTVTLTISGVQAEDEADYYCQSADSSGSYVFFGGGTKVTVLS		0.21	19	733	703	90000				remained stable over 24 hours
dL9.2:SKC602: fluoromodule: FAP dL9.2 (SEQ. ID. NO. 2) non-covalently complexed with fluorogen SKC602 (protein, non-covalent fluorogen SKC602; Fluorogen Activating Peptide (FAP) sequence) SYELTQPPSVSVSPGQTARITCSGDALPKQYTYWYQQKAGQAPVLVIYKDTERPSGIPERFSGTSSGTTATLTISGVQAEDEADYYCQSADSSGSYVFFGGGTKVTVLSGGGGPGGGSGGGSGGGSGGGSYELTQPPSVSVSPGQTARITCSGDALPKQYTYWYQQKAGQAPVLVIYKDTERPSGIPERFSGTSSGTTVTLTISGVQAEDEADYYCQSADSSGSYVFFGGGTKVTVLS		0.17	20	731	702	120000				remained stable over 24 hours
